Measured values taken from publication PMC11931385, “Structural and functional analysis of cancer-associated missense variants in the retinoblastoma protein pocket domain” (The Journal of Biological Chemistry, 2025).
Numbering of substitutions follows the chain as printed. In names and notes the source's numbering stands. No end group written: not given here. TMR = tetramethyl rhodamine dye

Legend:
Assay in all cases: fluorescence polarisation; 25 °C; unlabeled Rb^P titrated against 1.5 nM TMR-E2F1^TD or 7.5 nM TMR-E7^LxCxE; 25 mM Tris pH 8.0, 200 mM NaCl, 1 mM DTT, 0.1% Tween-20; 2 min incubation; quadratic fit; apparent Kd for the variants, Kd for WT
Conditions in all cases: both partners purified
Rb^P T638S = biological target: T1, Rb^P T638S (human, UniProt P06400 380-788, T638S)
T1 construct: also called variant 45
T1 sequence (looked up): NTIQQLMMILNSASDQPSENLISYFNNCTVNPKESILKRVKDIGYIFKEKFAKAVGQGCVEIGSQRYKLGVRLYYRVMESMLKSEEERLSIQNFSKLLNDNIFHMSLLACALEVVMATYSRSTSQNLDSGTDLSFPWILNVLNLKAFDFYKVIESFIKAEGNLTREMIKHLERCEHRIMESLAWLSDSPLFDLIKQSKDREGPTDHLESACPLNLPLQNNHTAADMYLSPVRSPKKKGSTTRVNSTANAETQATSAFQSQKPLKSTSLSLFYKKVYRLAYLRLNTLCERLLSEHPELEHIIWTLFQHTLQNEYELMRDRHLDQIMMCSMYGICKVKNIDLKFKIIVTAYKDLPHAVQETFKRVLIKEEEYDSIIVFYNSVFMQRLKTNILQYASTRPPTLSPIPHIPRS

Rb^P A490T = biological target: T2, Rb^P A490T (human, UniProt P06400 380-788, A490T)
T2 construct: also called variant 16
T2 sequence (looked up): T1 sequence (looked up) with A111T, S259T

Rb^P M546I = biological target: T3, Rb^P M546I (human, UniProt P06400 380-788, M546I)
T3 construct: also called variant 25
T3 sequence (looked up): T1 sequence (looked up) with M167I, S259T

Rb^P K462E = biological target: T4, Rb^P K462E (human, UniProt P06400 380-788, K462E)
T4 construct: also called variant 8
T4 sequence (looked up): T1 sequence (looked up) with K83E, S259T

Rb^P M761L = biological target: T5, Rb^P M761L (human, UniProt P06400 380-788, M761L)
T5 construct: also called variant 74
T5 sequence (looked up): T1 sequence (looked up) with S259T, M382L

B1: TMR-E2F1^TD, peptide of the E2F1 transactivation domain (peptide)
peptide: {TMR}-GEGIRDLFDCDFGDLTPLD
notes: also called E2F^TD; source: synthetic peptide, bought: GenScript
Work on B1 yielded a Kd (Rb^P T638S) of 14 nM, a Kd (Rb^P A490T) of 59 nM and a Kd (Rb^P M546I) of 13 nM. The Kd (Rb^P K462E) was 27 nM and the Kd (Rb^P M761L) was 32 nM.

B2: TMR-E7^LxCxE, LxCxE peptide of the E7 oncoprotein from HPV (peptide)
peptide: DLYCYEQLN
modifications: also: TMR label, position not given here
notes: source: synthetic peptide, bought: GenScript
In the case of B2, the Kd (Rb^P T638S) is reported as 7 nM, the Kd (Rb^P A490T) is reported as 13 nM and the Kd (Rb^P M546I) is reported as 7 nM. It also gave a Kd (Rb^P K462E) of 11 nM and a Kd (Rb^P M761L) of 1.3 nM.
